# Target: human FGFR1c together with human beta-Klotho (KLB), stably expressed on CHO Flp-In cells (human) (UniProt P11362)
# Test: cell-based or functional assay
# human FGFR1c together with human beta-Klotho (KLB), stably expressed on CHO Flp-In cells (human), sequence (P11362 22-822, chain 1 of 2): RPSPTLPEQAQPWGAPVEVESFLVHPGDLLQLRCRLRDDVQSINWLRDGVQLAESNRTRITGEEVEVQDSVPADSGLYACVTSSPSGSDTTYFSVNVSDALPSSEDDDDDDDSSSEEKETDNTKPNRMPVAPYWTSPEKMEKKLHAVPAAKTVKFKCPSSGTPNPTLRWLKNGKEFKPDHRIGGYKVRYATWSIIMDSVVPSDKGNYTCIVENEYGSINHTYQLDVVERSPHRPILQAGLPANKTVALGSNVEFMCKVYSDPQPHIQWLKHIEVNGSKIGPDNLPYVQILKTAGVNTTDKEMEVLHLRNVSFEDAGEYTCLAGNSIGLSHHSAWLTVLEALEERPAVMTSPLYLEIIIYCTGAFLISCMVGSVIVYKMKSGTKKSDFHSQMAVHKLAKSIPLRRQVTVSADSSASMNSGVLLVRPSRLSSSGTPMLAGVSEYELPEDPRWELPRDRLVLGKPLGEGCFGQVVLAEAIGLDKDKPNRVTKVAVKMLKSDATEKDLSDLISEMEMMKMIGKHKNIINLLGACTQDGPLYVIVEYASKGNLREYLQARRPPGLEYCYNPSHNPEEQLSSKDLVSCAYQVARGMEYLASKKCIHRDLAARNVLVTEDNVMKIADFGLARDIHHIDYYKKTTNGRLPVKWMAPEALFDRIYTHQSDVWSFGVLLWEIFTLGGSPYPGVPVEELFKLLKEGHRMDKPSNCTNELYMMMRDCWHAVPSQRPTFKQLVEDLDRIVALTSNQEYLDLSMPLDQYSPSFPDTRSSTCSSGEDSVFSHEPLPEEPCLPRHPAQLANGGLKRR
# human FGFR1c together with human beta-Klotho (KLB), stably expressed on CHO Flp-In cells (human), sequence (Q86Z14 whole entry, chain 2 of 2, further chain): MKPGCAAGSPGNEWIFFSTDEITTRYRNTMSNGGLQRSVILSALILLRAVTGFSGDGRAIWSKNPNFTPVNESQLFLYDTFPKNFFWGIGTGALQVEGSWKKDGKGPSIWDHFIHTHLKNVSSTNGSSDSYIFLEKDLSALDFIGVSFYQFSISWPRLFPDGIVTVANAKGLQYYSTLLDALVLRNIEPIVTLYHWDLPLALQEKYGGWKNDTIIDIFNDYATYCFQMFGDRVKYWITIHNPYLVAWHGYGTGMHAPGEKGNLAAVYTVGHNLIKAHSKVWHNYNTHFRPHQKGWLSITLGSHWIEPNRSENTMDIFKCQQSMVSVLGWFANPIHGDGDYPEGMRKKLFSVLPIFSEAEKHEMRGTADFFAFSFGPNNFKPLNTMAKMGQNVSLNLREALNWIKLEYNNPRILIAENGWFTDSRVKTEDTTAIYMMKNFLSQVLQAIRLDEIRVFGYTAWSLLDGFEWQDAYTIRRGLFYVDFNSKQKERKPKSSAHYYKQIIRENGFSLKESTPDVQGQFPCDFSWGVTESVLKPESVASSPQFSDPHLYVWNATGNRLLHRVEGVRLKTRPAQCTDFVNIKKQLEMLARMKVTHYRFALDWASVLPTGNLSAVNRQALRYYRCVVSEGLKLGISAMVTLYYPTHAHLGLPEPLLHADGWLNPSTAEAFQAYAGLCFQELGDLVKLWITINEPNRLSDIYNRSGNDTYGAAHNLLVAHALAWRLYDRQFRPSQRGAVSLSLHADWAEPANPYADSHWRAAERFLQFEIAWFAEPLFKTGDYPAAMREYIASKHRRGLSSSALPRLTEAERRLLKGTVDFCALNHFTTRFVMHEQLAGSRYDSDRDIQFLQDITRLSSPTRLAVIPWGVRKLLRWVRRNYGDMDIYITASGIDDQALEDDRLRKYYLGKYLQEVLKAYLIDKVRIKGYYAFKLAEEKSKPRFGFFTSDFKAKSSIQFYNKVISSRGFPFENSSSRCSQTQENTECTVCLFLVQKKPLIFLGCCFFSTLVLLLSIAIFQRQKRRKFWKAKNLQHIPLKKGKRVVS
# FGF21, human (SEQ ID NO: 2), with N-terminal tag, sequence (Q9NSA1 29-209 L174P): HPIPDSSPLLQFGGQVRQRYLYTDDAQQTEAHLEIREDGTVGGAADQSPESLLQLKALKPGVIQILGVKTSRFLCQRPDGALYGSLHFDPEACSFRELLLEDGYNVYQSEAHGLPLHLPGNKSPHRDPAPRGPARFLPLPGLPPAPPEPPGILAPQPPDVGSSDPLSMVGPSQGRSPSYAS
# FGF21 S191 deleted (SEQ ID NO: 53), sequence (Q9NSA1 other isoform, or with tags, fused parts or gaps): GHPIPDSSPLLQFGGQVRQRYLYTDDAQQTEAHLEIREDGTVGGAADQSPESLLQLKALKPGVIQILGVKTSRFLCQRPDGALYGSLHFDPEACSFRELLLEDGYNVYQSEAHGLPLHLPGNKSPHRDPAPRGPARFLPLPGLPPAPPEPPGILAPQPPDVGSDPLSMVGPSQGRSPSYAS
# FGF21 Y207 deleted (SEQ ID NO: 68), sequence (Q9NSA1 other isoform, or with tags, fused parts or gaps): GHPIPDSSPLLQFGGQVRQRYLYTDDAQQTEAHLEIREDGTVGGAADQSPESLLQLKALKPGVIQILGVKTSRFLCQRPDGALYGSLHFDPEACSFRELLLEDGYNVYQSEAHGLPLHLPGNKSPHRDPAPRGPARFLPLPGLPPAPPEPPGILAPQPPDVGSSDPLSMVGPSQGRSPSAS
# FGF21 V197 deleted (SEQ ID NO: 34), sequence (Q9NSA1 other isoform, or with tags, fused parts or gaps): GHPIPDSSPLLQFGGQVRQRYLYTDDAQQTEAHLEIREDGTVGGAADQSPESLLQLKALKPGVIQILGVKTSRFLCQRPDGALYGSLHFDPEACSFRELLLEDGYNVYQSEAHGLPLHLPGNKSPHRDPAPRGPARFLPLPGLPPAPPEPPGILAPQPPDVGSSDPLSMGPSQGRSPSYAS
# FGF21 R203 deleted (SEQ ID NO: 64), sequence (Q9NSA1 other isoform, or with tags, fused parts or gaps): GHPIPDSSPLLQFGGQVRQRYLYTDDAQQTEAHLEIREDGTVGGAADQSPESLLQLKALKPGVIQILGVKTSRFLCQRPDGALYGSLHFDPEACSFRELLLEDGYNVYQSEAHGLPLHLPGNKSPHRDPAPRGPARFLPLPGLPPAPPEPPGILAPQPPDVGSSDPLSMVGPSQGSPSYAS
# FGF21 S204 deleted (SEQ ID NO: 65), sequence (Q9NSA1 other isoform, or with tags, fused parts or gaps): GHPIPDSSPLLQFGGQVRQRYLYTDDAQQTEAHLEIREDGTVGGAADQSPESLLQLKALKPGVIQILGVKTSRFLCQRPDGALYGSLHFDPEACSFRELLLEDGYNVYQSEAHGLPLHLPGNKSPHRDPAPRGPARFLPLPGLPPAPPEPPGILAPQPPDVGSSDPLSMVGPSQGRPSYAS
# FGF21 S200 deleted (SEQ ID NO: 61), sequence (Q9NSA1 other isoform, or with tags, fused parts or gaps): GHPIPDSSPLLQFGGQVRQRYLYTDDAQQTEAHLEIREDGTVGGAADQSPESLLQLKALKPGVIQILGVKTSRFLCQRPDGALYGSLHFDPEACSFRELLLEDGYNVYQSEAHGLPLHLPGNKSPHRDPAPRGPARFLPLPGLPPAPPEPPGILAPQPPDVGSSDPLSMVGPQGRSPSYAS
# FGF21 V197 deleted, S201 deleted (SEQ ID NO: 69), sequence (Q9NSA1 other isoform, or with tags, fused parts or gaps): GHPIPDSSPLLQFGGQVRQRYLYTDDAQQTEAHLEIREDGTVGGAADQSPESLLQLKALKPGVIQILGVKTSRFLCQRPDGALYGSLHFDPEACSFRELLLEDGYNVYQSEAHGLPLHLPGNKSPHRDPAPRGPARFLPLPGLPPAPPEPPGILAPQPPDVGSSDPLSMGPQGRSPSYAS
# FGF21 S206 deleted (SEQ ID NO: 67), sequence (Q9NSA1 other isoform, or with tags, fused parts or gaps): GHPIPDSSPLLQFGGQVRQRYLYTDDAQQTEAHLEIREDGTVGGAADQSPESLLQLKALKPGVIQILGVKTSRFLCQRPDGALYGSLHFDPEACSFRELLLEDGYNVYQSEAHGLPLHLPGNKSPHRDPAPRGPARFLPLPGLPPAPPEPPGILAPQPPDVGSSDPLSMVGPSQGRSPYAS
row,Substance,pERK ICW EC50 [nmol/L]
1,FGF21 R203 deleted (SEQ ID NO: 64) (from UniProt Q9NSA1 29-209) (ligand),6.69
2,"FGF21 S76C, S79C (SEQ ID NO: 85) (from UniProt Q9NSA1 29-209) (ligand)",1.44
3,"FGF21 S76C, S79C, G198Y (SEQ ID NO: 39) (from UniProt Q9NSA1 29-209) (ligand)",0.15
4,"FGF21 S76C, S79C, P199 deleted (SEQ ID NO: 38) (from UniProt Q9NSA1 29-209) (ligand)",1.25
5,"FGF21 S137C, H140C (SEQ ID NO: 84) (from UniProt Q9NSA1 29-209) (ligand)",3.87
6,FGF21 S191 deleted (SEQ ID NO: 53) (from UniProt Q9NSA1 29-209) (ligand),97.3
7,"FGF21 S195C, S200C (SEQ ID NO: 8) (from UniProt Q9NSA1 29-209) (ligand)",10.8
8,FGF21 S200 deleted (SEQ ID NO: 61) (from UniProt Q9NSA1 29-209) (ligand),1.17
9,"FGF21 S200Q, Q201S (SEQ ID NO: 25) (from UniProt Q9NSA1 29-209) (ligand)",1.62
10,FGF21 S204 deleted (SEQ ID NO: 65) (from UniProt Q9NSA1 29-209) (ligand),25.7
11,FGF21 S206 deleted (SEQ ID NO: 67) (from UniProt Q9NSA1 29-205) (ligand),31.9
12,"FGF21 V69C, L110C (SEQ ID NO: 113) (from UniProt Q9NSA1 29-209) (ligand)",11.7
13,FGF21 V197 deleted (SEQ ID NO: 34) (from UniProt Q9NSA1 29-209) (ligand),68.8
14,"FGF21 V197 deleted, S201 deleted (SEQ ID NO: 69) (from UniProt Q9NSA1 29-209) (ligand)",98.7
15,FGF21 V197-R203 deleted and replaced by GLNSMV (SEQ ID NO: 28) (from UniProt Q9NSA1 29-209) (ligand),78.1
16,"FGF21 V197D, G198V, P199D, S200H (SEQ ID NO: 26) (from UniProt Q9NSA1 29-209) (ligand)",85.8
17,FGF21 V197E (SEQ ID NO: 14) (from UniProt Q9NSA1 29-209) (ligand),31.4
18,FGF21 Y207 deleted (SEQ ID NO: 68) (from UniProt Q9NSA1 29-206) (ligand),7.14
19,"FGF21, human (SEQ ID NO: 2), with N-terminal tag (from UniProt Q9NSA1 29-209) (ligand)",1.03

# Source: patent US20250171512A1
